B1: PINK1-V5 WT (V5-6xHis-tagged PINK1 wild type) [human] / CDC37 [human (endogenous in HeLa)] (parent)
chain 1: MAVRQALGRGLQLGRALLLRFTGKPGRAYGLGRPGPAAGCVRGERPGWAAGPGAEPRRVGLGLPNRLRFFRQSVAGLAARLQRQFVVRAWGCAGPCGRAVFLAFGLGLGLIEEKQAESRRAVSACQEIQAIFTQKSKPGPDPLDTRRLQGFRLEEYLIGQSIGKGCSAAVYEATMPTLPQNLEVTKSTGLLPGRGPGTSAPGEGQERAPGAPAFPLAIKMMWNISAGSSSEAILNTMSQELVPASRVALAGEYGAVTYRKSKRGPKQLAPHPNIIRVLRAFTSSVPLLPGALVDYPDVLPSRLHPEGLGHGRTLFLVMKNYPCTLRQYLCVNTPSPRLAAMMLLQLLEGVDHLVQQGIAHRDLKSDNILVELDPDGCPWLVIADFGCCLADESIGLQLPFSSWYVDRGGNGCLMAPEVSTARPGPRAVIDYSKADAWAVGAIAYEIFGLVNPFYGQGKAHLESRSYQEAQLPALPESVPPDVRQLVRALLQREASKRPSARVAANVLHLSLWGEHILALKNLKLDKMVGWLLQQSAATLLANRLTEKCCVETKMKMLFLANLECETLCQAALLLCSWRAAL
chain 2: MVDYSVWDHIEVSDDEDETHPNIDTASLFRWRHQARVERMEQFQKEKEELDRGCRECKRKVAECQRKLKELEVAEGGKAELERLQAEAQQLRKEERSWEQKLEEMRKKEKSMPWNVDTLSKDGFSKSMVNTKPEKTEEDSEEVREQKHKTFVEKYEKQIKHFGMLRRWDDSQKYLSDNVHLVCEETANYLVIWCIDLEVEEKCALMEQVAHQTIVMQFILELAKSLKVDPRACFRQFFTKIKTADRQYMEGFNDELEAFKERVRGRAKLRIEKAMKEYEEEERKKRLGPGGLDPVEVYESLPEELQKCFDVKDVQMLQDAISKMDPTDAKYHMQRCIDSGLWVPNSKASEAKEGEEAGPGDPLLEAVPKTGDEKDVSV
B2: PINK1-V5 WT (V5-6xHis-tagged PINK1 wild type) [human] / TOM40 [human (endogenous in HeLa)] (parent)
chain 1: B1 chain 1
chain 2: MGNVLAASSPPAGPPPPPAPALVGLPPPPPSPPGFTLPPLGGSLGAGTSTSRSSERTPGAATASASGAAEDGACGCLPNPGTFEECHRKCKELFPIQMEGVKLTVNKGLSNHFQVNHTVALSTIGESNYHFGVTYVGTKQLSPTEAFPVLVGDMDNSGSLNAQVIHQLGPGLRSKMAIQTQQSKFVNWQVDGEYRGSDFTAAVTLGNPDVLVGSGILVAHYLQSITPCLALGGELVYHRRPGEEGTVMSLAGKYTLNNWLATVTLGQAGMHATYYHKASDQLQVGVEFEASTRMQDTSVSFGYQLDLPKANLLFKGSVDSNWIVGATLEKKLPPLPLTLALGAFLNHRKNKFQCGFGLTIG

Experiments:
[1] = variants of: B1; assay: co-immunoprecipitation (V5 agarose) with western blot quantification; conditions: HeLa cells, read off a plot
[2] = variants of: B2; assay: as above; conditions: HeLa cells, read off a plot

Variant	response (cdc37/V5 ratio) ([1]; 10 μM CCCP for 2 h)	response (cdc37/V5 ratio) ([1]; untreated (no CCCP))	response (Tom40/V5 ratio) ([2]; 10 μM CCCP for 2 h)	response (Tom40/V5 ratio) ([2]; untreated (no CCCP))
chain 1 L347P	0.55	0.58	–	–
chain 1 I368N	0.66	0.61	–	–
chain 1 I368N	–	–	0.32	0.42
chain 1 L347P	–	–	0.19	0.35
